From patent US20140087995A1 (published 2014)
Numbered stars: 1 amine (or outer) side, 2 acyl side, 3 side chain; on linkers, the order of the positions; unused ones are H or OH. Bridge positions count the residues as written; N and C are the ends. * marks the point of attachment. C20 diacid = O=C(O)CCCCCCCCCCCCCCCCCCC(=O)*; γGlu = O=C(O)[C@H](CCC(=O)[*:2])N[*:1]

T1: human amylin 3(a) receptor (human calcitonin receptor plus RAMP-3) (human, UniProt P30988 25-474; O60896 24-148, limits assumed)
T1 sequence (looked up) 1: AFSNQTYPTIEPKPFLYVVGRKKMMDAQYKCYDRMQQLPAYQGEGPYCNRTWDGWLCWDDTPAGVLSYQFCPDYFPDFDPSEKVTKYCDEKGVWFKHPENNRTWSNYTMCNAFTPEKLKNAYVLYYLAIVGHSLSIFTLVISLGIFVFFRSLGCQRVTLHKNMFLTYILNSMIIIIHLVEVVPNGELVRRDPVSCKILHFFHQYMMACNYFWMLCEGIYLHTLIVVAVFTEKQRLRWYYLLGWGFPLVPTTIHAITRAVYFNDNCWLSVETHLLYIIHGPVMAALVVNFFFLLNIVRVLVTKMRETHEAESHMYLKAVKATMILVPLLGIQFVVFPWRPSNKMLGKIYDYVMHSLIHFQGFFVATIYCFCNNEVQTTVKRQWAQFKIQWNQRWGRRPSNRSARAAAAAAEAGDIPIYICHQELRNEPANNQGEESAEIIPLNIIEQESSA
T1 sequence (looked up) 2: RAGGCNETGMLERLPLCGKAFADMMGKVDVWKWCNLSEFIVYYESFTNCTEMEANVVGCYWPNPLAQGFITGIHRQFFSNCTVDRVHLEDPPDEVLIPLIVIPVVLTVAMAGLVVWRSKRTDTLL

T2: human calcitonin receptor (human, UniProt P30988 25-474)
T2 sequence (looked up): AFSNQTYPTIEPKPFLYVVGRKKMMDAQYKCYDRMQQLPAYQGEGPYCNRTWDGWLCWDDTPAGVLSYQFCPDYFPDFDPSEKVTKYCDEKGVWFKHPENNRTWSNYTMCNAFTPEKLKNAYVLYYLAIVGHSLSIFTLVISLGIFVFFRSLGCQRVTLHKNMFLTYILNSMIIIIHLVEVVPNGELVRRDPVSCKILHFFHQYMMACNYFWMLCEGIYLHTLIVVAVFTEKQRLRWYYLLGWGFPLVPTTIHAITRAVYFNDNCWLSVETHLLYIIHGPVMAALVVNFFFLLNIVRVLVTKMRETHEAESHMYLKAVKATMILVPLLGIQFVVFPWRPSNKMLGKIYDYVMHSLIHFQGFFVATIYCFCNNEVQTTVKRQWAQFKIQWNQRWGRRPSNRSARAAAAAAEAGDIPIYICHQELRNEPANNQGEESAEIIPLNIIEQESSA


Assays:
[1] = target: T1, human amylin 3(a) receptor (human …); assay: cell-based or functional assay
[2] = target: T2, human calcitonin receptor; assay: cell-based or functional assay
[3] = target: T1, human amylin 3(a) receptor (human …); assay: SPA competition binding, displacement of 125I-rat amylin from membranes of Amylin 3(a)/CRE-luc BHK cells (Assay V)
Description: The binding assay was performed using scintillation proximity assay (SPA) beads (RPNQ0001) from PerkinElmer and cell membranes from the Amylin 3(a)/CRE-luc cells (as described in Assay (II)) were used. Membranes were prepared in the following way; the cells were rinsed with PBS and incubated with Versene for approximately 5 min before harvesting. The cells were flushed with PBS and the cell-suspension was centrifuged for 5 min at 1000 rpm. Cells were homogenized (ultrathurrax) in a buffer containing 20 mM Na-HEPES and 10 mM EDTA (pH 7.4) and centrifuged at 20.000 rpm for 15 min. The resulting pellet was resuspended, homogenized and centrifuged (20.000 rpm, 15 min) in a buffer containing 20 mM Na-HEPES and 0.1 mM EDTA (pH 7.4, buffer 2). The resulting pellet was resuspended in buffer 2 and protein concentration was measured (BCA protein Assay, Pierce). The homogenate was kept cold during the whole procedure. The membranes were kept at −80° C. until use. The assay was performed in a 384 well Optiplate (PerkinElmer) in a total volume of 40 ul. Membranes were mixed with SPA beads. Final concentration of membranes 35 ng/μL final and SPA beads was 0.05 mg/well. Test-compounds were dissolved in DMSO and further diluted in assay buffer (50 mM Hepes, pH 7.4, 1 mM CaCl2, 5 mM MgCl₂, 0.1% OA and 0.02% Tween20). […] The final mixture was incubated with shaking at 400 rpm for 120 min at 25° C. prior to centrifugation (1500 rpm, 10 min). Samples were analyzed on TopCounter™ (Packard). The IC₅₀ was calculated using (one site binding competition analysis) GraphPad Prism5 as a measure of receptor affinity.

Binder	Ratio hCT/hAmylin funct. [1]	hAmylin-R funct. EC50 [1]	hCTR funct. EC50 [2]	IC50 [3]
{C20 diacid-γGlu}-KCNTATCATQRLAEFLRHSSPNFGAIPSSTPVGSNTY-NH2 (disulfide 2-7; SMILES CC[C@H](C)[C@H](NC(=O)[C@H](C)NC(=O)CNC(=O)[C@H](Cc1ccccc1)NC(=O)[C@H](CC(N)=O)NC(=O)[C@@H]1CCCN1C(=O)[C@H](CO)NC(=O)[C@H](CO)NC(=O)[C@H](Cc1c[nH]cn1)NC(=O)[C@H](CCCNC(=N)N)NC(=O)[C@H](CC(C)C)NC(=O)[C@H](Cc1ccccc1)NC(=O)[C@H](CCC(=O)O)NC(=O)[C@H](C)NC(=O)[C@H](CC(C)C)NC(=O)[C@H](CCCNC(=N)N)NC(=O)[C@H](CCC(N)=O)NC(=O)[C@@H](NC(=O)[C@H](C)NC(=O)[C@@H]1CSSC[C@H](NC(=O)[C@H](CCCCN)NC(=O)CC[C@H](NC(=O)CCCCCCCCCCCCCCCCCCC(=O)O)C(=O)O)C(=O)N[C@@H](CC(N)=O)C(=O)N[C@@H]([C@@H](C)O)C(=O)N[C@@H](C)C(=O)N[C@@H]([C@@H](C)O)C(=O)N1)[C@@H](C)O)C(=O)N1CCC[C@H]1C(=O)N[C@@H](CO)C(=O)N[C@@H](CO)C(=O)N[C@H](C(=O)N1CCC[C@H]1C(=O)N[C@H](C(=O)NCC(=O)N[C@@H](CO)C(=O)N[C@@H](CC(N)=O)C(=O)N[C@H](C(=O)N[C@@H](Cc1ccc(O)cc1)C(N)=O)[C@@H](C)O)C(C)C)[C@@H](C)O, also called compound 31)	6.4	0.112 nM	0.717 nM	0.204 nM
{C20 diacid-γGlu}-KCNTATCATQRLAEFLRHSSPNFGAILPSTNVGSETY-NH2 (disulfide 2-7, also called compound 33)	2.2	0.243 nM	0.528 nM	0.915 nM
{C20 diacid-γGlu}-KCNTATCATQRLAEFLRHSSPNFGAIPSSTNVGSETY-NH2 (disulfide 2-7; SMILES CC[C@H](C)[C@H](NC(=O)[C@H](C)NC(=O)CNC(=O)[C@H](Cc1ccccc1)NC(=O)[C@H](CC(N)=O)NC(=O)[C@@H]1CCCN1C(=O)[C@H](CO)NC(=O)[C@H](CO)NC(=O)[C@H](Cc1c[nH]cn1)NC(=O)[C@H](CCCNC(=N)N)NC(=O)[C@H](CC(C)C)NC(=O)[C@H](Cc1ccccc1)NC(=O)[C@H](CCC(=O)O)NC(=O)[C@H](C)NC(=O)[C@H](CC(C)C)NC(=O)[C@H](CCCNC(=N)N)NC(=O)[C@H](CCC(N)=O)NC(=O)[C@@H](NC(=O)[C@H](C)NC(=O)[C@@H]1CSSC[C@H](NC(=O)[C@H](CCCCN)NC(=O)CC[C@H](NC(=O)CCCCCCCCCCCCCCCCCCC(=O)O)C(=O)O)C(=O)N[C@@H](CC(N)=O)C(=O)N[C@@H]([C@@H](C)O)C(=O)N[C@@H](C)C(=O)N[C@@H]([C@@H](C)O)C(=O)N1)[C@@H](C)O)C(=O)N1CCC[C@H]1C(=O)N[C@@H](CO)C(=O)N[C@@H](CO)C(=O)N[C@H](C(=O)N[C@@H](CC(N)=O)C(=O)N[C@H](C(=O)NCC(=O)N[C@@H](CO)C(=O)N[C@@H](CCC(=O)O)C(=O)N[C@H](C(=O)N[C@@H](Cc1ccc(O)cc1)C(N)=O)[C@@H](C)O)C(C)C)[C@@H](C)O, also called compound 22)	3.8	0.27 nM	1.03 nM	0.794 nM

Binders with a lower IC50 [3], results first:

Ratio hCT/hAmylin funct. [1]	hAmylin-R funct. EC50 [1]	hCTR funct. EC50 [2]	IC50 [3]	Binder
1.1	0.082 nM	0.087 nM	0.072 nM	{C20 diacid-γGlu}-KCNTATCATQRLAEFLRHSSPNFGAIPSSTNVGSNTP-NH2 (disulfide 2-7; SMILES CC[C@H](C)[C@H](NC(=O)[C@H](C)NC(=O)CNC(=O)[C@H](Cc1ccccc1)NC(=O)[C@H](CC(N)=O)NC(=O)[C@@H]1CCCN1C(=O)[C@H](CO)NC(=O)[C@H](CO)NC(=O)[C@H](Cc1c[nH]cn1)NC(=O)[C@H](CCCNC(=N)N)NC(=O)[C@H](CC(C)C)NC(=O)[C@H](Cc1ccccc1)NC(=O)[C@H](CCC(=O)O)NC(=O)[C@H](C)NC(=O)[C@H](CC(C)C)NC(=O)[C@H](CCCNC(=N)N)NC(=O)[C@H](CCC(N)=O)NC(=O)[C@@H](NC(=O)[C@H](C)NC(=O)[C@@H]1CSSC[C@H](NC(=O)[C@H](CCCCN)NC(=O)CC[C@H](NC(=O)CCCCCCCCCCCCCCCCCCC(=O)O)C(=O)O)C(=O)N[C@@H](CC(N)=O)C(=O)N[C@@H]([C@@H](C)O)C(=O)N[C@@H](C)C(=O)N[C@@H]([C@@H](C)O)C(=O)N1)[C@@H](C)O)C(=O)N1CCC[C@H]1C(=O)N[C@@H](CO)C(=O)N[C@@H](CO)C(=O)N[C@H](C(=O)N[C@@H](CC(N)=O)C(=O)N[C@H](C(=O)NCC(=O)N[C@@H](CO)C(=O)N[C@@H](CC(N)=O)C(=O)N[C@H](C(=O)N1CCC[C@H]1C(N)=O)[C@@H](C)O)C(C)C)[C@@H](C)O, also called compound 8)
6.6	0.05 nM	0.327 nM	0.1 nM	{C20 diacid-γGlu}-KCNTATCATQRLAEFLRHSSPNFGAIPSSTNVGPNTY-NH2 (disulfide 2-7; SMILES CC[C@H](C)[C@H](NC(=O)[C@H](C)NC(=O)CNC(=O)[C@H](Cc1ccccc1)NC(=O)[C@H](CC(N)=O)NC(=O)[C@@H]1CCCN1C(=O)[C@H](CO)NC(=O)[C@H](CO)NC(=O)[C@H](Cc1c[nH]cn1)NC(=O)[C@H](CCCNC(=N)N)NC(=O)[C@H](CC(C)C)NC(=O)[C@H](Cc1ccccc1)NC(=O)[C@H](CCC(=O)O)NC(=O)[C@H](C)NC(=O)[C@H](CC(C)C)NC(=O)[C@H](CCCNC(=N)N)NC(=O)[C@H](CCC(N)=O)NC(=O)[C@@H](NC(=O)[C@H](C)NC(=O)[C@@H]1CSSC[C@H](NC(=O)[C@H](CCCCN)NC(=O)CC[C@H](NC(=O)CCCCCCCCCCCCCCCCCCC(=O)O)C(=O)O)C(=O)N[C@@H](CC(N)=O)C(=O)N[C@@H]([C@@H](C)O)C(=O)N[C@@H](C)C(=O)N[C@@H]([C@@H](C)O)C(=O)N1)[C@@H](C)O)C(=O)N1CCC[C@H]1C(=O)N[C@@H](CO)C(=O)N[C@@H](CO)C(=O)N[C@H](C(=O)N[C@@H](CC(N)=O)C(=O)N[C@H](C(=O)NCC(=O)N1CCC[C@H]1C(=O)N[C@@H](CC(N)=O)C(=O)N[C@H](C(=O)N[C@@H](Cc1ccc(O)cc1)C(N)=O)[C@@H](C)O)C(C)C)[C@@H](C)O, also called compound 32)
1.6	0.146 nM	0.238 nM	0.196 nM	{C20 diacid-γGlu-γGlu}-KCNTATCATQRLAEFLRHSSPNFGAIPSSTNVGSNTP-NH2 (disulfide 2-7; SMILES CC[C@H](C)[C@H](NC(=O)[C@H](C)NC(=O)CNC(=O)[C@H](Cc1ccccc1)NC(=O)[C@H](CC(N)=O)NC(=O)[C@@H]1CCCN1C(=O)[C@H](CO)NC(=O)[C@H](CO)NC(=O)[C@H](Cc1c[nH]cn1)NC(=O)[C@H](CCCNC(=N)N)NC(=O)[C@H](CC(C)C)NC(=O)[C@H](Cc1ccccc1)NC(=O)[C@H](CCC(=O)O)NC(=O)[C@H](C)NC(=O)[C@H](CC(C)C)NC(=O)[C@H](CCCNC(=N)N)NC(=O)[C@H](CCC(N)=O)NC(=O)[C@@H](NC(=O)[C@H](C)NC(=O)[C@@H]1CSSC[C@H](NC(=O)[C@H](CCCCN)NC(=O)CC[C@H](NC(=O)CC[C@H](NC(=O)CCCCCCCCCCCCCCCCCCC(=O)O)C(=O)O)C(=O)O)C(=O)N[C@@H](CC(N)=O)C(=O)N[C@@H]([C@@H](C)O)C(=O)N[C@@H](C)C(=O)N[C@@H]([C@@H](C)O)C(=O)N1)[C@@H](C)O)C(=O)N1CCC[C@H]1C(=O)N[C@@H](CO)C(=O)N[C@@H](CO)C(=O)N[C@H](C(=O)N[C@@H](CC(N)=O)C(=O)N[C@H](C(=O)NCC(=O)N[C@@H](CO)C(=O)N[C@@H](CC(N)=O)C(=O)N[C@H](C(=O)N1CCC[C@H]1C(N)=O)[C@@H](C)O)C(C)C)[C@@H](C)O, also called compound 14)
